B1: ZNF193 (parent)
chain: QKRYHCKECGKVFSQSAGLIQHQR

Variants of: B1
Assay: protein stability index of a GFP-peptide fusion (GPS, HEK-293T) (PSI 1-6); higher = more stable
Conditions: c terminus: a fixed tail appended
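Also: lentivirally expressed fusions sorted by FACS into six bins by GFP to DsRed ratio, PSI derived from sequencing read proportions per bin multiplied by bin number.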

Variant | protein stability index
G18C | 2.7
G18W | 1.68
G18R | 2.86
G18D | 4.32
G18M | 2.06
G18N | 2.32
G18Q | 3.55
G18S | 2.22
G18F | 2.26
G18I | 2.4
G18H | 2.84
G18K | 2.8
G18T | 2.65
G18E | 4.13
H22W | 1.99
H22Y | 1.5
H22N | 1.67
H22V | 1.33
H22Q | 2.1
H22E | 1.59
H22G | 1.41
H22K | 2.14
H22A | 1.16
H22I | 1.73

Variant | protein stability index
H22R | 1.62
H22S | 1.9
H22T | 2.05
H22C | 2.04
H22D | 2.1
H22L | 1.75
H22M | 1.84
C6E | 3.74
C6D | 3.05
C6N | 2.74
C6K | 2.69
C6A | 2.63
C6L | 2.31
C6F | 2.08
C6G | 2.62
C6S | 2.88
C6R | 2.6
C6T | 2.83
C6W | 1.96
E8M | 2.6
E8G | 2.66
E8P | 2
E8Y | 2.67
E8D | 2.93

Variant | protein stability index
E8F | 2.56
E8A | 2.75
E8W | 2.71
E8L | 2.75
E8R | 3.12
E8H | 3.81
E8V | 2.68
E8C | 4.26
E8T | 2.94
E8K | 3.5
R24K | 3.65
R24T | 2.33
R24D | 3.33
R24W | 2.1
R24A | 2.83
R24P | 2.44
R24M | 2.44
R24H | 3.44
R24Q | 2.48
R24S | 2.43
R24G | 3.05
R24Y | 2.5
R24F | 2
R24V | 2.28

Variant | protein stability index
R24C | 4.52
L19F | 2.43
L19Q | 2.45
L19D | 2.35
L19T | 1.94
L19P | 2.54
L19V | 2.12
L19C | 3.12
L19H | 2.58
L19A | 2.45
L19S | 1.97
L19Y | 2.42
L19N | 2.56
L19M | 2.35
L19W | 2.41
L19R | 2.55
L19G | 2.37
F13M | 1.82
F13R | 2.17
F13A | 1.81
F13L | 2.5
F13I | 2.42
F13G | 1.87
F13Q | 2.29

Variant | protein stability index
F13P | 2.39
F13N | 1.67
F13K | 2.25
F13E | 2.42
F13Y | 1.99
F13H | 3.12
F13C | 2.15
F13W | 2.03
F13S | 2.12
R3K | 3.23
R3E | 3.26
R3L | 3.58
R3V | 3.2
R3S | 3.12
R3M | 3.23
R3H | 2.92
R3C | 3.48
R3G | 2.93
R3N | 2.87
R3Q | 3.33
R3A | 3.18
R3W | 3.52
R3F | 3.6
G10V | 1.46

Variant | protein stability index
G10S | 2.11
G10K | 1.98
G10N | 2.5
G10Y | 1.67
G10P | 2.33
G10A | 1.96
G10W | 2.02
G10C | 1.83
G10Q | 2.29
G10F | 2.03
G10M | 2.12
G10L | 1.95
Y4A | 1.99
Y4M | 2.17
Y4F | 2.72
Y4H | 2.47
Y4Q | 2.42
Y4N | 2.39
Y4P | 2.47
Y4T | 1.97
Y4R | 1.98
Y4S | 2.11
Y4C | 2.41
Y4D | 2.48

Variant | protein stability index
Y4K | 2.65
Y4I | 2.4
Y4V | 2.25
S16W | 2.99
S16V | 2.62
S16N | 3.11
S16K | 3.53
S16E | 4.39
S16Y | 3.8
S16T | 2.27
S16H | 3.77
S16R | 3.97
S16G | 2.7
S16I | 2.98
S16Q | 3.88
S16C | 2.9
S16A | 3.71
Q23N | 2.36
Q23H | 2.97
Q23A | 2.5
Q23L | 2.69
Q23R | 2.85
Q23K | 3.36
Q23V | 2.37

Variant | protein stability index
Q23F | 2.05
Q23P | 1.74
Q23E | 2.55
Q23S | 2.54
Q23G | 2.07
Q23M | 3.13
Q23W | 1.97
K2N | 2.86
K2V | 2.58
K2S | 2.48
K2T | 2.24
K2F | 2.31
K2H | 3.06
K2P | 3.07
K2W | 2.17
K2M | 3.1
K2E | 3.08
K2C | 2.39
K2Y | 2.6
K2I | 2.81
K2L | 2.81
H5M | 4.01
H5R | 3.9
H5F | 3.01

Variant | protein stability index
H5D | 2.37
H5C | 3.34
H5Y | 3.29
H5A | 3.25
H5V | 3.95
H5N | 2.77
H5P | 3.1
H5S | 2.94
H5E | 3.62
H5W | 2.98
C9A | 3.45
C9E | 3.64
C9K | 3.64
C9Q | 3.19
C9I | 2.83
C9D | 3.97
C9H | 3.13
C9W | 2.58
C9G | 3.2
C9Y | 2.7
C9V | 3.07
C9S | 3.11
C9L | 2.52
C9N | 3.17

Variant | protein stability index
Q15N | 4.24
Q15C | 3.93
Q15P | 1.58
Q15F | 2.28
Q15L | 1.99
Q15S | 4.11
Q15W | 2.06
Q15E | 3.85
Q15I | 1.92
Q15R | 3.08
Q15K | 3.45
Q15A | 2.83
S14G | 2.54
S14L | 3.16
S14F | 2.68
S14Y | 3.25
S14P | 2.72
S14A | 3.47
S14H | 2.98
S14C | 2.58
S14I | 2.64
S14T | 3.06
S14D | 3.47
S14Q | 2.86

Variant | protein stability index
V12S | 3.27
V12Y | 2.75
V12F | 2.67
V12T | 3.52
V12D | 3.27
V12C | 2.81
V12Q | 2.82
V12A | 2.43
V12R | 3.33
V12N | 2.78
V12G | 2.77
V12W | 2.82
V12E | 3.23
V12H | 2.82
Q1F | 2.45
Q1S | 2.88
Q1D | 3.71
Q1G | 2.81
Q1I | 3.03
Q1M | 2.45
Q1T | 2.98
Q1R | 3.19
Q1W | 1.9
Q1E | 3.7

Variant | protein stability index
Q1H | 2.73
Q1L | 2.62
Q1A | 2.67
Q21C | 3.06
Q21K | 2.6
Q21L | 2.57
Q21N | 3.02
Q21D | 3.82
Q21Y | 2.21
Q21M | 2.55
Q21W | 2.44
Q21I | 2.1
Q21G | 2.67
Q21F | 1.91
Q21A | 3.2
Q21H | 2.88
Q21T | 2.61
Q21V | 2.37
A17V | 2.48
A17H | 2.66
A17K | 3.09
A17D | 3.42
A17G | 2.54
A17P | 2.02

Variant | protein stability index
A17Y | 1.94
A17I | 2.28
A17W | 2.86
A17N | 3.05
A17S | 3.02
K11R | 2.01
K11A | 3.19
K11C | 2.3
K11N | 1.66
K11P | 2.12
K11I | 2.32
K11Y | 1.7
K11F | 1.82
K11H | 2.34
K11W | 2.32
K11E | 3.1
K11M | 3.23
K11G | 1.83
I20S | 2.69
I20V | 3.22
I20W | 2.4
I20M | 2.86
I20F | 2.45
I20P | 2.27

Variant | protein stability index
I20R | 3.5
I20L | 3.08
I20N | 2.5
I20H | 3.31
I20Q | 2.83
I20A | 3.06
I20C | 3.95
I20D | 3.02
K7Y | 3.1
K7C | 2.65
K7P | 3.33
K7T | 2.74
K7W | 2.49
K7G | 2.92
K7S | 3.35
K7H | 2.94
K7L | 2.95
K7I | 2.69
K7D | 3.15
K7A | 2.95
K7V | 2.99
K7Q | 3.15

— the supplement of paper PMC10567573
